Data from PMC7655957, “A tunable LIC1-adaptor interaction modulates dynein activity in a cargo-specific manner” (Nature Communications, 2020).

B1: LIC1_(433–458), amphipathic helix of the dynein light intermediate chain-1 (peptide, UniProt Q9Y6G9 433-458, looked up)
peptide: NMKAGATSEGVLANFFNSLLSKKTGS
notes: Its concentration was determined with fluorescamine-labeled peptide; also called LIC1 helix; source: peptide after reverse-phase purification
B2: NIN_(1–87), first EF-hand pair of Ninein (domain or fragment, human, UniProt Q8N4C6-1 1-87, looked up)
chain: MDEVEQDQHEARLKELFDSFDTTGTGSLGQEELTDLCHMLSLEEVAPVLQQTLLQDNLLGRVHFDQFKEALILILSRTLSNEEHFQE
notes: NIN (Ninein), human, UniProt Q8N4C6-1, residues 1-87 (EF-hand pair); Cloned into pMAL-c2X
B3: MBP-CRACR2a_(47–122), EF-hand pair of calcium release-activated calcium channel regulator 2A (domain or fragment, human, UniProt Q9BSW2-1 47-122, looked up)
chain: GQLVMLRKAQEFFQTCDAEGKGFIARKDMQRLHKELPLSLEELEDVFDALDADGNGYLTPQEFTTGFSHFFFSQNN
notes: Cloned into pMAL-c2X; the MBP tag was not removed for the ITC experiments; also called Ca^2+-CRACR2a; not shown: MBP, N-terminal, kept
B4: FIP3_(206–270), EF-hand pair of Rab11 family-interacting protein 3 (domain or fragment, human, UniProt O75154-1 206-270, looked up)
chain: RLRAVFDALDGDGDGFVRIEDFIQFATVYGAEQVKDLTKYLDPSGLGVISFEDFYQGITAIRNGD
notes: Cloned into pMAL-c2X

Assays:
Settings in all cases: both partners purified
[1] = molecular target: B2; test: ITC; EF-hand pairs titrated into LIC1_(433–458); 20 mM HEPES (pH 7.5), 100 mM NaCl, 0.5 mM TCEP; 5 mM CaCl2 or 5 mM EGTA as indicated in the figure; 20 or 30 °C
[2] = molecular target: B3; test: as above
[3] = molecular target: B4; test: as above
[4] = molecular target: T1, MBP-LIC1FL, full-length dynein light intermediate chain-1 (human, UniProt Q9Y6G9 1-523); test: ITC; EF-hand pairs titrated into MBP-LIC1FL; 20 mM HEPES (pH 7.5), 100 mM NaCl, 0.5 mM TCEP, 5 mM CaCl2; 20 or 30 °C
T1 construct: cytoplasmic dynein-1 light intermediate chain-1 (LIC1), human, full length; also called MBP-LICFL; full-length LIC1
T1 sequence (Q9Y6G9 whole entry): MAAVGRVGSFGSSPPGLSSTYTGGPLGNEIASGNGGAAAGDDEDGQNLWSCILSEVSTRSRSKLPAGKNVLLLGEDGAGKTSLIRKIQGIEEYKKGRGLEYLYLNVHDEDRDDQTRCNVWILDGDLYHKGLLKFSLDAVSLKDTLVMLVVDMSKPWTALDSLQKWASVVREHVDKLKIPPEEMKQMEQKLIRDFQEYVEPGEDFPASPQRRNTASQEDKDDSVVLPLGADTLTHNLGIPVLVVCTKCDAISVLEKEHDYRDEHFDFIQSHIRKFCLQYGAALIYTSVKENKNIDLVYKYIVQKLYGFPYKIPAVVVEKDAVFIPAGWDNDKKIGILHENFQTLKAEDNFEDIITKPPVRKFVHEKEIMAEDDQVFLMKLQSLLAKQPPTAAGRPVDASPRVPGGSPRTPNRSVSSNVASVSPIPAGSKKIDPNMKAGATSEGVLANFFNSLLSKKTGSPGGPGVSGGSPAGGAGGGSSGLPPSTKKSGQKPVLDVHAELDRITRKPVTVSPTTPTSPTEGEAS

Binder | Kd [1] [µM] | Kd [2] [µM] | Kd [3] [µM] | Kd [4] [µM] | stoichiometry N [4]
B1 | ~5.4 | ~1.4 | ~2 |  | 
B2 |  |  |  | ~12 | ~1
B3 |  |  |  | ~3.6 | ~1
B4 |  |  |  | ~6.1 | ~1
